Test results reported in patent publication US8840891 (RSR, dated 2014).

Experiments:
[1] = target: TSHR coated on ELISA plate wells (RSR Ltd) (human) (UniProt P16473); test: ELISA on TSHR-coated wells, inhibition of TSH-biotin binding
[2] = target: TSHR coated on ELISA plate wells (RSR Ltd) (human) (UniProt P16473); test: ELISA on TSHR-coated wells, inhibition of 5C9 IgG-biotin binding

Sequence of M22 IgG, human monoclonal thyroid stimulating autoantibody (hMAb TSHR1) (VH): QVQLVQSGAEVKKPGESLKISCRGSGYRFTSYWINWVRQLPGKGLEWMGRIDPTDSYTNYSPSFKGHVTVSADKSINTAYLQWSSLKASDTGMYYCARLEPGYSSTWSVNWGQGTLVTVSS
Sequence of M22 IgG, human monoclonal thyroid stimulating autoantibody (hMAb TSHR1) (V domain): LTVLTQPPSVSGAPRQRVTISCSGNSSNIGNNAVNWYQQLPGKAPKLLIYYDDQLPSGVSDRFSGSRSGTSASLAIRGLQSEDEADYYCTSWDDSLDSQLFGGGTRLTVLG

% inhibition [1]: 15%
% inhibition [2]: 28%
Substance: M22 IgG, human monoclonal thyroid stimulating autoantibody (hMAb TSHR1)
